Assay results taken from the nanobody polyreactivity screen of Harvey et al. (2022).

Assay: yeast display, Sf9 membrane polyspecificity reagent, FACS + sequencing; frameworks hold sequencing errors
In short: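 After 36–48 hours of galactose induction, yeast (Saccharomyces cerevisiae BJ5465) displaying a synthetic nanobody library were stained at 4 °C for 1 hour with 10% biotinylated, detergent-solubilized Sf9 membrane reagent. Streptavidin microbeads enriched the stained cells before FACS sorting into low and high (top ~1%) gates on anti-HA and streptavidin fluorescence. Each clone's polyreactivity label reflects its gate of origin.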

Row | Sequence | polyreactivity (PSR sort gate)
1 | QVQLVESGGGLVQAGGSLRLSCAASGLTFQWYTMGWYRQAPGKERELVAAISSRGGSTYYADSVKGRFTISRDNAKNTVYLQMNSLKPEDTAVYYCAVRLRWYFFLMDYWGQGTQVTVSS | high polyreactivity
2 | QDQLVESGGGLVQAGVSLRLSCPASGYNFDYYVMGWYRQAPGKERELVAAISSSGGSTYYADSVKGRFTISRDNAKNTVYLQMNSLKPEDTAVYYCATKPYPYYLYYYWGQGTQVTVSS | high polyreactivity
3 | QVQLVESGGGLVQAGGSLRLSCAASVYAMGWYRQAPGKERELVAAITDSGSTNYADSVKGRFTISRDNAKNTVYLQMNTLKPEDTAVYYCNADPYYATGSWARLPLYQYDYWGQGTQVTVSS | low polyreactivity
4 | QVQLVESGGGLVQAGGSLRLSCAASGSTLDRNTMGWYRQAPGKERELVAAITSSGGRTYYADSVKGRFTISRDNEKNTVYFQMNSLKPDDTAVYYCNNDYWKRPVDEYDYWGQGTQVTVSS | high polyreactivity
5 | QVQLVESGGGLVQEGGILRLSCAASGRTFTWYAMEWYRQAPGKERELVAAISFSGGSTYYADSVKGRFTISRDNAKNTVYLQMNSLKPEDSAVYYCARASGDAWEGPRLDYWGQGTQVTVSS | low polyreactivity
6 | QVQLLESGGGLVQAGGSLRLSFAASGLTLGAYAMVWYRQAPGKERELVAAITNGGSTDYADSVKGRFTISRDNAKITVYLQMNSLKPEDTAVYYCAKDISRPDRGMDYWGQGTQVTVSS | low polyreactivity
7 | QVQLVESGGGLVQAGGSLRLSCAASGSTFIENAMGWYRQAPGKERELVAAINRGGTTYYADSVKGRFTISRDNAKNTVYLQMNSLKPEDTAVYYCAADDPSYANRFIHDYWGQGTHVTVSS | low polyreactivity
8 | QVQLVESGGGLVQAGGSLRLSCAASGSTFGPYAMGWYRQAPGKERELVATISGSRSSTYYADSVKGRFTISRDNAKNTVYLQMNSLKPEDTAVYYCATDLYFDLRYDYWGQGTQVTVSS | low polyreactivity
9 | QVQLVESGGGLVQAGGSLRLSCAASGGIFSPNAMGWYRQAPGKERELVAGITFSGGSTYYADSVKGRFTISRDNAKTTVYLQMNSLKPEDTAVYYCNARVPPQGWGPWKAFDYWGQGTQVTVSS | low polyreactivity
10 | QVQLVESGGGLVQAGGSLRLSCAASGSIIGDNTMGWYRQAPGKERELVATIRKNGASTTYADSVKGRFTISRDNAKNTVYLQMNSLKPEDTAVYYCARDHHTKYNYWGQGTQVTVSS | low polyreactivity
11 | QVQLVESGGVLVQAGGSLRISCAASGSTFYSYDMGWYRQAPGKERELVAAISSSSGSTYYADSVKARFTISRDNAKNTVYLQMNSLKPEDTAVYYCKRGRRYSHKYDYWGQVTQVTVSS | high polyreactivity
12 | QVQLVESGGGLVQAGGSLRLSCAASGRTFRGNAMGWYRQAPGKEREVVAAISWSGGNTYYADSVKGRFTISRDNAKNTVYLQMNSLKPEDTAVYYCAAGSYWSPYGQSFWPKYDYWGQGTQVTVSS | high polyreactivity
13 | QVQLVESGVGLVQAGGSLRLSCAASGFTLGRNAMGWYRQAPGKERELVASISGRGGSSYYADSVKGRFTISRDNAKNSVYLQMNSLKPEDTAVYYCAARGVSGKYYYWGQGTQVTVSS | high polyreactivity
14 | QVQLVESGGGLVQAGGSLRLSCAASGRTFVQYVMGRYRQAPGKERELVAAITSSGGSTYADSVKGRFTISRDNAKNTVYLQMNSLKPEDTAVYYSAADYLDGVGDVEHDYWGQGTQVTVSS | low polyreactivity
15 | QVQLVESGGGLVQAGGSLRLSCAASGSIFGDNAMGWYRQAPGKERELVAAISIVGSTSYADSVKGRFTISRDNAKNTVYLQMNSLKPEDTAVYYCAADTFYSYYDMDYWGQGTQVTVSS | low polyreactivity
16 | QVQLVESGGGLVQAGGSLRLSCAASGRIFGIYAMGWYRQAPGKERELVAAISFIGGRTYYADSVKGRFTISRDNAKNTVYLQMNSLKPEDTAVYYCAARTVPSSRREYWGQGTQVTVSS | high polyreactivity
17 | QVQLVESGGGLVQAGGSLRLSCAASGSIFSRYAMGWYRQAPGKERELVAAISTIGGSTYYADSVKGRFTISRDNAKNTVYLQMNSLIPEDTAVYYCNARQTAALTPRYGYWGQGTQVTVSS | high polyreactivity
18 | QVQLVESAGGLVQAGGSLRLSCDASGRIIRGNAMGWYRQAPGKEREMVAAINRSGGSTYYADSVKGRFTISRDNAKNTVYLQMKSLKQEDTAVYYCIAYPASRKTGWSSGYYYWGQGTQVTVSS | high polyreactivity
19 | QVQLVESGGGLVQAGGSLRLSCAASGRIFFFNTMGWYRQAPGKERELVARINRGGRTNYADSVKGRFTISRDNAKNTVYLQMNSLKPEDTAVYYCAADRTWYKLETTEYDYWGQGTQVTVSS | high polyreactivity
20 | QVQLVESGGGLGQAGGSLRLSCAASGSIFAGNAMGWYRQAPRKERELVAAISRRGGSTYYADSVKGRFTISRDNAKNTVYLQMNSLKPEDTAVYYCNALLRYAYHAAYGYWGQGTQVTVSS | high polyreactivity
21 | QVQLVESGGGLVQEGGSLRLSCAASGRTFYQYAMGWYRQAPGKERELVAVINGGGSTNYADSVKGRFTISRDNAKNTVYLQMNSLIPEDTAVYYCNADDVFDFDYWGQGTQVTVSS | low polyreactivity
22 | QVQLVESGGGLVQAGGSLRLSCAASGRTFVGNAMGWYRQAPGKERELVATITRRGGSTYYADSVKGRFTISRDNAKNTVYLQMNSLKPEDTAVYYCSAGSQPGRKYYYWGQGTQVTVSS | high polyreactivity

Row | Sequence | polyreactivity (PSR sort gate)
23 | QVQLVESGGGLVQAGGSLRLSCAASGGTFWVYAMGWYRQAPGKERELVAAIRWRGGRTYYADSVKGRFTISRDNAKNTVYLQMNSLKPEDTAVYYCAATTWRSGRYNYWGQGTQVTVSA | high polyreactivity
24 | QVQLVESGGGLVQAGGSLRLSCAASGYIFGTYGMGWYRQAPGKERELVAGISRSGTSTYYADSVKGRFTISRDNAKNTVYLQMNSLKPEDTAVYYCAAVSRTRYEYWGQGTQVTVSS | high polyreactivity
25 | QVQLVESGGGLVQAGGSLRLSCAASGRTFEFYTMGWYRQAPGKERELVAAINWSGSRTYYADSVKGRFTISRDNAKNTVYLQMNSLKPEDTAVYYCNAGEKRGLISIQGYDYWGQGTQVTVSS | high polyreactivity
26 | QVQLVESGGGLVQAGGSLRLSCAASGLIFRLYAMGWYRQAPGKERELVAAISGGGGSTYYADSVKGRFTISRDNAKNTVYLQMNSLKPEDTAVYYCAATYSRGYWWSEYDYWGQGTQVTVSS | low polyreactivity
27 | QVQLVESGGGLVQAGGSLRLSCAASGRTFKPYAMGWYRQAPGKERELVAAISTGGSTNYADSVKGRFTISRDNAKNTVYLQMKSLKPEDTAVYYCAALYSYFWLIIDYGYWGQGTQVTVSS | low polyreactivity
28 | QVQLVESGGGLVQAGGSLRLSCAASGRIFSLNAMGWYRQAPGKERELVAAISKRGGSTYYADSVKGRFTISRDNAKNTVYLQMNSLKPEDTAVYYCNKLGSLSGRYDYWGQGTQVTVSS | high polyreactivity
29 | QVQLVESGGGLVQAGGSLRLSCAATGFIFRYYAMGWYSQAPGKERELVATISSGGGTHYADSVKGRYSISRDNAKNTVYLKMNSLKPEDTAVYYCNARGYRRLRTRVDYWGQGTQVTVSS | high polyreactivity
30 | QVQLVESGGGLVQAGGSLRLSCAASGRTFRVYAMGWYRQAPGKERELVAAIRSGGSTNYADSVKGRFTISRDNAKNTVYLQMNSLKPEDTAVYYCAAVYRNNRQGYQFDYWGQGTQVTVSS | high polyreactivity
31 | QVQLVESGGGLVQAGGSLRLSCAASGFTSPIYAMGWYRQAPGKERELVAVIDWSSGITYYADSVKGRFTISRDNAKNTVYLQMNSLKPEDTAVYYCAAEYRGRGWRYGYDYWGQGTQVTVSS | high polyreactivity
32 | QVQLVESAGGLVQAGGSLRLSCAASGSIINRYAMGWYRQAPGKERELVAAITQSGGRTYYADSVKGRFTISRDNAKNTVYLQMNRLKPDDTAGYYCNAFRWYLYDYWGQGTLVTVSS | high polyreactivity
33 | QVQLVESGGGLVQAGGSLRLSCAASGSIVEYYAMGWYRQAPGKERELVAAISTGGSTYYADSVKGRFTISRDNAKNTVYLQMNSLKPEDTAVYYCAAEDYHPGADTVGTGYDYWGQGTQVTVSS | low polyreactivity
34 | QVQLVESGGGLVQAGGSLRLSCAASGGIFRGYAMGWYRQAPGKERELVATSRSSGRTNYADSVKGRFTISRDNAKNTVYLQMNSLKPEDTAVYFCNKRRWWQYDSWGDWVLGGDDYWGQGTQVTVSS | low polyreactivity
35 | QVQLVESGGGLVQAGGSLRLSCAASGIIFRGYVMGLYIQAPGKERELVAAINSSTGSTYYADSVKGRFTISRDNAKNTVYLQMNSLKPEDTAVYYCNAEDRGSTYVDFDYWGQGTQVTVSS | low polyreactivity
36 | QVQLVESGGGLVQAGGSLRLSCAASGSTLDRYVMGWYRQATGKERELVAAISRNGGSTYYADSVKGRFTISRDNAKNTVYLQMNSLIPEDTAVYNCARYAGFPYTQGDYWGQGTQVTVSS | high polyreactivity
37 | QGQLVESGGGLVQAGGSLRLSCAASGSTFGYNVMGWYRQATGKERELVAAINYSGVRTYYADSVKGRFTISRDNAKNTVYLQMNSLIPEDTAVYYCNATPTRAVGPYQYNYWGQGTQVTVSS | high polyreactivity
38 | QVQLVESGGGLVQAGGSLRLSCASSGLTFYGNAMVWYRPAPGKERELVAAISSSGGTTYYADSVKGRFTISRDNAKNTVYLQMTSLKPEDTAVYYCAARPSGGYESTRTRDYWGQGTQVTVSS | low polyreactivity
39 | QVQLVESGGGLVQAGGSLRLSCAASGLILVPNTMGWYRQAPGKARELVAAISYSGGGTYYADSVKGRFTISRDNAKNTVYLQMNSLKPEDTAVYYCAAYDKRESAPYGYWGQGTQVTVSS | low polyreactivity
40 | QVQLVESGGGLGQAGGSLRLSCAASGSIFPAYAMGCYRQAPGKERELVAAITFSGGSTYYADSVKGRFTISRDNAKNTVYLQMNSLKPEDTAVYYCATDSYGWRFNRAITSYGGDYWGQGTQVTVSS | low polyreactivity
41 | QFQLVESGGGLVQAGASLRLSCAASGNIFPAYAMGWYRQAPGKERELVATISRRGGGTYYADSVKGRFTISRDNAKNTVYLQMNSLKQEDTAVYYCNVAGWTSAYDYWGQGTQVTVSS | low polyreactivity
42 | QVQLVESGGGLVQAGGSLRLSCAASGITSDQNAMGWYRQAPGKERELVAAITRGGTTYYADSVKGRFTISRDNAKNTVYLQMNSLKPEDTAVYYCNARYYFRKQVRPFHIRYDYWGQGTQVTVSS | low polyreactivity
43 | QVQIVESGRGLVQAGGSLRLSCAPSGFNIPTNGMGWYRQATGKEREFVASITWRGGGTYYAESVKGRFTISRDNAKNTVFLQMNSLKPEDTAVYYCAAGRSWSSYWKYDYWGLGTQVTVSS | low polyreactivity
